The values that follow come from article PMC4855144.

The test addresses GFP-N-WASP WH1-GBD. Briefly: co-IP; GFP microbeads precipitate GFP-N-WASP and fragments ΔWA, WH1, WH1-GBD from HEK293T cell extracts; endogenous CRN7 detected with mAb K37-142-1; ratio of co-IP to IP.

Chain of GFP-N-WASP WH1-GBD (O00401 whole entry, the tested form may be a part): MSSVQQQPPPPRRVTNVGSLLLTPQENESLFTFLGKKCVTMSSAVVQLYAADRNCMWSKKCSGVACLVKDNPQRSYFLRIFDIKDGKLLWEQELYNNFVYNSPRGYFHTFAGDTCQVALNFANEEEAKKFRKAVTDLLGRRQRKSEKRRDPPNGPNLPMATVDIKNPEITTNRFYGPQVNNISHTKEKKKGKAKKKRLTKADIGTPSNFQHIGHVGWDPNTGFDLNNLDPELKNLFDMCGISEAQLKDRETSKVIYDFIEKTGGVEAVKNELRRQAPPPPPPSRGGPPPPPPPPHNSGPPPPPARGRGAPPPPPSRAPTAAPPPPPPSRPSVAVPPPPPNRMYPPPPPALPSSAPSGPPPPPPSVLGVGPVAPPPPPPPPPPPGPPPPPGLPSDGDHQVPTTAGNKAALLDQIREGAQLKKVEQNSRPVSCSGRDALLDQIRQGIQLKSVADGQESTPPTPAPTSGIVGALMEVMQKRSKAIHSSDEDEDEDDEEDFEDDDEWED

B1: endogenous CRN7 (Coronin7) of HEK293T cells (natural protein)
chain: MNRFRVSKFRHTEARPPRRESWISDIRAGTAPSCRNHIKSSCSLIAFNSDRPGVLGIVPLQGQGEDKRRVAHLGCHSDLVTDLDFSPFDDFLLATGSADRTVKLWRLPGPGQALPSAPGVVLGPEDLPVEVLQFHPTSDGILVSAAGTTVKVWDAAKQQPLTELAAHGDLVQSAVWSRDGALVGTACKDKQLRIFDPRTKPRASQSTQAHENSRDSRLAWMGTWEHLVSTGFNQMREREVKLWDTRFFSSALASLTLDTSLGCLVPLLDPDSGLLVLAGKGERQLYCYEVVPQQPALSPVTQCVLESVLRGAALVPRQALAVMSCEVLRVLQLSDTAIVPIGYHVPRKAVEFHEDLFPDTAGCVPATDPHSWWAGDNQQVQKVSLNPACRPHPSFTSCLVPPAEPLPDTAQPAVMETPVGDADASEGFSSPPSSLTSPSTPSSLGPSLSSTSGIGTSPSLRSLQSLLGPSSKFRHAQGTVLHRDSHITNLKGLNLTTPGESDGFCANKLRVAVPLLSSGGQVAVLELRKPGRLPDTALPTLQNGAAVTDLAWDPFDPHRLAVAGEDARIRLWRVPAEGLEEVLTTPETVLTGHTEKICSLRFHPLAANVLASSSYDLTVRIWDLQAGADRLKLQGHQDQIFSLAWSPDGQQLATVCKDGRVRVYRPRSGPEPLQEGPGPKGGRGARIVWVCDGRCLLVSGFDSQSERQLLLYEAEALAGGPLAVLGLDVAPSTLLPSYDPDTGLVLLTGKGDTRVFLYELLPESPFFLECNSFTSPDPHKGLVLLPKTECDVREVELMRCLRLRQSSLEPVAFRLPRVRKEFFQDDVFPDTAVIWEPVLSAEAWLQGANGQPWLLSLQPPDMSPVSQAPREAPARRAPSSAQYLEEKSDQQKKEELLNAMVAKLGNREDPLPQDSFEGVDEDEWD
On to B1, for which the fold binding (co-IP to IP ratio) over WH1 alone turned out to be 4 fold.
